According to US20240117018A1:

Experiments:
Experiment in all cases: cell-based or functional assay
[1] = molecular target: HIV-1 Env of pseudovirus ZM247v1(Rev-) (HIV-1)
[2] = molecular target: HIV-1 Env of pseudovirus P1981_C5_3 (HIV-1)
[3] = molecular target: HIV-1 Env of pseudovirus 231965.c01 (HIV-1)
[4] = molecular target: HIV-1 Env of pseudovirus HIV-16055-2.3 (HIV-1)
[5] = molecular target: HIV-1 Env of pseudovirus CNE20 (HIV-1)
[6] = molecular target: HIV-1 Env of pseudovirus Q769.d22 (HIV-1)
[7] = molecular target: HIV-1 Env of pseudovirus TRO.11 (HIV-1)
[8] = molecular target: HIV-1 Env of pseudovirus X1632_S2_B10 (HIV-1)
[9] = molecular target: HIV-1 Env of pseudovirus WEAU_d15_410_787 (HIV-1)
[10] = molecular target: HIV-1 Env of pseudovirus Q842.d12 (HIV-1)
[11] = molecular target: HIV-1 Env of pseudovirus T257-31 (HIV-1)
[12] = molecular target: HIV-1 Env of pseudovirus Ce2010_F5 (HIV-1)
[13] = molecular target: HIV-1 Env of pseudovirus 1054_07_TC4_1499 (HIV-1)
[14] = molecular target: HIV-1 Env of pseudovirus ZM197M.PB7 (HIV-1)
[15] = molecular target: HIV-1 Env of pseudovirus ZM53M.PB12 (HIV-1)
[16] = molecular target: HIV-1 Env of pseudovirus Ce1176_A3 (HIV-1)
[17] = molecular target: HIV-1 Env of pseudovirus Du422.1 (HIV-1)
[18] = molecular target: HIV-1 Env of pseudovirus CNE52 (HIV-1)
[19] = molecular target: HIV-1 Env of pseudovirus AC10.0.29 (HIV-1)
[20] = molecular target: HIV-1 Env of pseudovirus BJOX015000.11.5 (HIV-1)
[21] = molecular target: HIV-1 Env of pseudovirus ZM135M.PL10a (HIV-1)
[22] = molecular target: HIV-1 Env of pseudovirus X1254_c3 (HIV-1)
[23] = molecular target: HIV-1 Env of pseudovirus ZM109F.PB4 (HIV-1)
[24] = molecular target: HIV-1 Env of pseudovirus Du172.17 (HIV-1)
[25] = molecular target: HIV-1 Env of pseudovirus 1012_11_TC21_3257 (HIV-1)
[26] = molecular target: HIV-1 Env of pseudovirus CAAN5342.A2 (HIV-1)
[27] = molecular target: HIV-1 Env of pseudovirus Ce0393_C3 (HIV-1)
[28] = molecular target: HIV-1 Env of pseudovirus BJOX028000.10.3 (HIV-1)
[29] = molecular target: HIV-1 Env of pseudovirus 1394C9G1(Rev-) (HIV-1)
[30] = molecular target: HIV-1 Env of pseudovirus ZM214M.PL15 (HIV-1)
[31] = molecular target: HIV-1 Env of pseudovirus 62357_14_D3_4589 (HIV-1)
[32] = molecular target: HIV-1 Env of pseudovirus HIV-0013095-2.11 (HIV-1)
[33] = molecular target: HIV-1 Env of pseudovirus CNE53 (HIV-1)
[34] = molecular target: HIV-1 Env of pseudovirus ZM233M.PB6 (HIV-1)
[35] = molecular target: HIV-1 Env of pseudovirus Ce2060_G9 (HIV-1)
[36] = molecular target: HIV-1 Env of pseudovirus BJOX009000.02.4 (HIV-1)
[37] = molecular target: HIV-1 Env of pseudovirus CNE58 (HIV-1)

N49P7.1 (antibody)
IC50 [1]: 0.038 µg/mL | IC80 [1]: 0.176 µg/mL | MPI [1]: 100 | IC50 (neutralisation, TZM.bl cells) [2]: 0.216 µg/mL | IC80 (neutralisation, TZM.bl cells) [2]: 0.494 µg/mL | MPI [2]: 100 | IC50 (neutralisation, TZM.bl cells) [3]: 0.106 µg/mL | IC80 (neutralisation, TZM.bl cells) [3]: 0.364 µg/mL | MPI [3]: 100 | IC50 [4]: 0.088 µg/mL | IC80 [4]: 0.318 µg/mL | MPI [4]: 100 | IC50 [5]: 0.079 µg/mL | IC80 [5]: 0.224 µg/mL | MPI [5]: 100 | IC50 [6]: 0.044 µg/mL | IC80 [6]: 0.163 µg/mL | MPI [6]: 100 | IC50 [7]: 0.055 µg/mL | IC80 [7]: 0.191 µg/mL | MPI [7]: 100 | IC50 (neutralisation, TZM.bl cells) [8]: 17.9 µg/mL | IC80 (neutralisation, TZM.bl cells) [8]: > 50 µg/mL | MPI [8]: 65 | IC50 [9]: 0.058 µg/mL | IC80 [9]: 0.142 µg/mL | MPI [9]: 100 | IC50 [10]: 0.028 µg/mL | IC80 [10]: 0.08 µg/mL | MPI [10]: 100 | IC50 [11]: 0.209 µg/mL | IC80 [11]: 1.04 µg/mL | MPI [11]: 100 | IC50 [12]: 0.055 µg/mL | IC80 [12]: 0.208 µg/mL | MPI [12]: 100 | IC50 [13]: 0.627 µg/mL | IC80 [13]: 2.98 µg/mL | MPI [13]: 100 | IC50 [14]: 0.144 µg/mL | IC80 [14]: 0.539 µg/mL | MPI [14]: 100 | IC50 [15]: 0.287 µg/mL | IC80 [15]: 1 µg/mL | MPI [15]: 100 | IC50 [16]: 0.279 µg/mL | IC80 [16]: 1.01 µg/mL | MPI [16]: 100 | IC50 [17]: 3.76 µg/mL | IC80 [17]: 15.7 µg/mL | MPI [17]: 93 | IC50 [18]: 0.021 µg/mL | IC80 [18]: 0.058 µg/mL | MPI [18]: 100 | IC50 [19]: 5.31 µg/mL | IC80 [19]: 46.8 µg/mL | MPI [19]: 85 | IC50 [20]: 0.111 µg/mL | IC80 [20]: 0.487 µg/mL | MPI [20]: 100 | IC50 [21]: 0.314 µg/mL | IC80 [21]: 1.11 µg/mL | MPI [21]: 99 | IC50 [22]: 3.96 µg/mL | IC80 [22]: 18.2 µg/mL | MPI [22]: 96 | IC50 [23]: 0.055 µg/mL | IC80 [23]: 0.199 µg/mL | MPI [23]: 100 | IC50 [24]: 0.185 µg/mL | IC80 [24]: 0.748 µg/mL | MPI [24]: 100 | IC50 [25]: 0.063 µg/mL | IC80 [25]: 0.176 µg/mL | MPI [25]: 100 | IC50 [26]: 0.55 µg/mL | IC80 [26]: 1.59 µg/mL | MPI [26]: 100 | IC50 [27]: 0.23 µg/mL | IC80 [27]: 1.02 µg/mL | MPI [27]: 100 | IC50 [28]: 0.031 µg/mL | IC80 [28]: 0.29 µg/mL | MPI [28]: 100 | IC50 [29]: 4.37 µg/mL | IC80 [29]: 30.9 µg/mL | MPI [29]: 88 | IC50 [30]: 0.257 µg/mL | IC80 [30]: 0.853 µg/mL | MPI [30]: 100 | IC50 [31]: 0.028 µg/mL | IC80 [31]: 0.15 µg/mL | MPI [31]: 100 | IC50 [32]: 0.105 µg/mL | IC80 [32]: 0.374 µg/mL | MPI [32]: 100 | IC50 [33]: 0.066 µg/mL | IC80 [33]: 0.228 µg/mL | MPI [33]: 100 | IC50 [34]: 0.355 µg/mL | IC80 [34]: 1.25 µg/mL | MPI [34]: 100 | IC50 [35]: 0.473 µg/mL | IC80 [35]: 2.41 µg/mL | MPI [35]: 100 | IC50 [36]: 0.219 µg/mL | IC80 [36]: 0.756 µg/mL | MPI [36]: 100 | IC50 [37]: 0.049 µg/mL | IC80 [37]: 0.107 µg/mL | MPI [37]: 100
